According to the nanobody polyreactivity screen of Harvey et al. (2022):

Assay: yeast display, Sf9 membrane polyspecificity reagent, FACS + sequencing; frameworks hold sequencing errors
Procedure, shortened: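 Synthetic nanobody libraries on Saccharomyces cerevisiae BJ5465 were galactose-induced for 36–48 hours, stained 1 hour at 4 °C with 10% biotinylated, detergent-solubilized Sf9 membrane reagent and enriched on streptavidin microbeads. FACS then separated cells into low and high (top ~1%) gates by anti-HA (expression) and streptavidin (reagent binding) fluorescence. Genes were colony-PCR amplified, MiSeq 2 × 250 sequenced and CDR-length filtered. A clone's polyreactivity label is that of its gate of origin.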
With “QVQLVESGGGLVQAGGSLRLSCAASGFTFGGYAMGWYRQAPGKERELVAAISSGGSTYYADSVKGRFTISRDNAKNTVYLQMNSLKPEDTAVYYCATDLRRYSYRGGHYYWGQGTQVTVSS” the “polyreactivity (PSR sort gate)” value was “high polyreactivity”.
With “QVQLVESGGGLVQAGGSLRLSCAASGFTFGGYTMGWYRQAPGKERELVAAISRSGGSTYYADSVKGRFTISRDNAKNTVYLLMNSLKPEDTAVYYCAVTYSVRTYWYDYWGQGTQVTVSS” the “polyreactivity (PSR sort gate)” value was “high polyreactivity”.
For “QVQLVESGGGLVQAGGSLRLSCAASGFTFGGYVMGWYRQAPGKERELVAAINQTGGSTYYADSVKGRFTISRDNAKNTVYLQMNSLKPEDTAVYYCAALGYHGYRNYDYWGQGTQVTVSS”, the “polyreactivity (PSR sort gate)” value was “low polyreactivity”.
With “QVQLVESGGGLVQAGGSLRLSCAASGFTFGINAKGWYRQAPGKERELVAALSWSGGSTYYADSVKGRFTISRDNAKNTVYLQMNSLKPEDTAVYYCAVVWFSLWYKGSTFNRYDYWGQGTQVTVSS” the “polyreactivity (PSR sort gate)” value was “low polyreactivity”.
For “QVQLVESGGGLVQAGGSLRLSCAASGFTFGIYAMGRYRQAPGKERELVAAISRSGGSTYYADSVKGRFTISRDNAKNTVYLQMNSLKPEDTAVYYCNTRWGYARGGRYGYWGQGTQVTVSS”, the “polyreactivity (PSR sort gate)” value was “high polyreactivity”.
In the case of “QVQLVESGGGLVQAGGSLRLSCAASGFTFGIYAMGWYRQAPGKERELVAAISRGGGSTYYADSVKGRFTISRDNAKNTVYLQMNSLKPEDTAVYYCAARYQSPYDYWGQGTQVTVSS”, the “polyreactivity (PSR sort gate)” value is reported as “high polyreactivity”.
For “QVQLVESGGGLVQAGGSLRLSCAASGFTFGIYAMGWYRQAPGKERELVAAITKGGGSTYYADSVKGRFTISRDNAKNTVYLQMNSLKPEDTAVYYCAARRVSERRVGYWGQGTQVTVSS”, the “polyreactivity (PSR sort gate)” value was “high polyreactivity”.
With “QVQLVESGGGLVQAGGSLRLSCAASGFTFGKYAMGWYRPAPAKERELVAAISRSGGSTYYADSVKGRFTISRDIAKNTVYLQMNSLKPEDTAVYYCAAYHPIQEYDYWGQGTQVTVSS” the “polyreactivity (PSR sort gate)” value was “high polyreactivity”.
For “QVQLVESGGGLVQAGGSLRLSCAASGFTFGKYARGWYRQAPGKERELVAAISRSGGSTYYADSVKGRFTISRDNAKNTVYLQMNSLKPEDTAVYYCAAYHPIQEYDYWGQGTQVTVSS”, the “polyreactivity (PSR sort gate)” value was “high polyreactivity”.
In the case of “QVQLVESGGGLVQAGGSLRLSCAASGFTFGLYAMGWYRQAPGKERELVAAISWSGDNTYYADSVKGRFTISRDNAKNTVYLQMNSLKPEDTAVYYCAKVTKRNQGYYYWGQGTQVTVSS”, the “polyreactivity (PSR sort gate)” value is reported as “high polyreactivity”.
With “QVQLVESGGGLVQAGGSLRLSCAASGFTFGNYAMGWYRQAPGKERELVAAITRGGSTYYADSVKGRFTISRDNAKNTVYLQMKSLKPEDTAVYYCAARYFFWFRPSEYYYWGQGTQVTVSS” the “polyreactivity (PSR sort gate)” value was “high polyreactivity”.
With “QVQLVESGGGLVQAGGSLRLSCAASGFTFGPNAMGWYRQAPGKEREFVAAISWSGGSTYYADSVKGRFTISRDNAKNTVYLQMNSLKPEDTAVYYCAARYRYTRSGTMGYWGQGTQVTVSS” the “polyreactivity (PSR sort gate)” value was “high polyreactivity”.
For “QVQLVESGGGLVQAGGSLRLSCAASGFTFGRNAMGWYRQAPGKERELVAAISRGGSTYYADSVKGRFTISRDNAKNTVYLQMISLKPEDTAVYYCAAETFLKPQYFKKFGYWGQGTQVTVSS”, the “polyreactivity (PSR sort gate)” value was “high polyreactivity”.
For “QVQLVESGGGLVQAGGSLRLSCAASGFTFGRYAMGWYRQAPGKERELVAAITWSGGTTTYYADSVKGRFTISRDNAKNTVYLQMNSLKPEDTAVYYSAADLYFYIYSYNYWGQGTQVTVSS”, the “polyreactivity (PSR sort gate)” value was “low polyreactivity”.
In the case of “QVQLVESGGGLVQAGGSLRLSCAASGFTFGRYAMGWYRQAPGKERELVASITSGGSTYYADSVKGRFTISRDNAKNTVYLQMNSLKPEDTAVYYCAAEWRWWGGYYYWGQGTQVTVSS”, the “polyreactivity (PSR sort gate)” value is reported as “high polyreactivity”.
In the case of “QVQLVESGGGLVQAGGSLRLSCAASGFTFGRYTMGCYRQEPGKERELVAAISKSGSGTFYADSVKGRFTISRDNAKNTVYLQINSLKPEDTAVYYCAARYRHFGNQVRTSHSIMYYWGQGTQVTVSS”, the “polyreactivity (PSR sort gate)” value is reported as “high polyreactivity”.
In the case of “QVQLVESGGGLVQAGGSLRLSCAASGFTFGRYTMGWYRQAPGKERELVAAISWSGGSTYYADSVKGRFTISRDNAKNTVYLQMNSLKPEDTAVYYCAKVFRGGRGDYWGQGTQVTVSS”, the “polyreactivity (PSR sort gate)” value is reported as “high polyreactivity”.
With “QVQLVESGGGLVQAGGSLRLSCAASGFTFGSNAMGWYRQAPGKERELVAAISYSGTRTYYADSVKGRFTISRDNAKNTVYLQMNRLKPEDTAVYYCAAGFRKTQFNVRYYYWGHGTQVTVSS” the “polyreactivity (PSR sort gate)” value was “high polyreactivity”.
In the case of “QVQLVESGGGLVQAGGSLRLSCAASGFTFGSYAMGWYRQAPGKERELVAAIRQSATRTYYADSVKGRFTISRDNAKNTVYLQMNSLKPEDTAVYYCNVARPGKYFYIYDYWGQGTQVTVSS”, the “polyreactivity (PSR sort gate)” value is reported as “low polyreactivity”.
For “QVQLVESGGGLVQAGGSLRLSCAASGFTFGSYAMGWYRQAPGKERELVAAITASGGSTYYADSVKGRFTISRDNPKNTVYLQMNSLKPEDTAVYYCNKRWTYKWDDYWGQGTQVTVSS”, the “polyreactivity (PSR sort gate)” value was “high polyreactivity”.
In the case of “QVQLVESGGGLVQAGGSLRLSCAASGFTFGTYAMGWYRQAPGKERELVAAITSSGTITYYADSVKGRFTISRDNAKNTVYLQMNSLKPEDTAVYYCAARRFRRLRWGQGTQVTVSS”, the “polyreactivity (PSR sort gate)” value is reported as “low polyreactivity”.
With “QVQLVESGGGLVQAGGSLRLSCAASGFTFGVYAMGWYRQAPGKERELVAAITWGDGSTYYADSVKGRFTISRDNAKNTVYLQMYSLKPEDTAVYYCIAVTRRHIYYYWGQGTQVTVSS” the “polyreactivity (PSR sort gate)” value was “high polyreactivity”.
In the case of “QVQLVESGGGLVQAGGSLRLSCAASGFTFGVYTMGWYRQAPGKETELVASISWDGGSTYYADSVKGRFTISRDNAKNTVYLQMNSLKPEDTAVYYCAKGSSFYYGYDYWGQGTQVTVSS”, the “polyreactivity (PSR sort gate)” value is reported as “low polyreactivity”.
With “QVQLVESGGGLVQAGGSLRLSCAASGFTFGWNAMGWYRQAPGKERELVAAISWSGGSTYYADSVKGRFTISRDNAKKTVYLQMNSLKPEDTAVYYCAAYPAYGGDYWGQGTQVTVSS” the “polyreactivity (PSR sort gate)” value was “high polyreactivity”.
For “QVQLVESGGGLVQAGGSLRLSCAASGFTFGWNAMGWYRQAPGKERELVAAISWSGGSTYYADSVKGRFTISRDNAKNTVYLQMNSLKPEDTAVYYCAAYPAYGGDYWGQGTQVTVSS”, the “polyreactivity (PSR sort gate)” value was “high polyreactivity”.
For “QVQLVESGGGLVQAGGSLRLSCAASGFTFGWYAMGRYRQAPGKERELVAAISRGGSTYYADSVKGRFTISRDNAKNTVYLQMNSLKPEDTAVYYCNAAGLPTQLYYWGQGTQVTVSS”, the “polyreactivity (PSR sort gate)” value was “high polyreactivity”.
With “QVQLVESGGGLVQAGGSLRLSCAASGFTFGYNDMGWYRQAPGKERELVAAIRLSDGGTYYADSVKGRFTISRDNAKNTVYLQMNSLKPEDTAVYYCAAPQDTYIPYDYWGQGTQVTVSS” the “polyreactivity (PSR sort gate)” value was “low polyreactivity”.
With “QVQLVESGGGLVQAGGSLRLSCAASGFTFGYNTMGWYRQAPGKERELVATITSGGSTYYADSVKGRFTISRDNAKNTDYLQMNSLKPEDTAVYYCAATAGSPWAKSRYGYWGQGTQVTVSS” the “polyreactivity (PSR sort gate)” value was “low polyreactivity”.
In the case of “QVQLVESGGGLVQAGGSLRLSCAASGFTFGYYAKGWYRQAPGKERELVAGISRGGRTNYADSVKGRFTISRDNAKNTVYLQMNSLKPEDTAVYYCAKDTYYPSSRYNRYYYWGQGSQVTVSS”, the “polyreactivity (PSR sort gate)” value is reported as “high polyreactivity”.
In the case of “QVQLVESGGGLVQAGGSLRLSCAASGFTFGYYALGWYRQAPGKERELVAAINYSGGSTYYADSVKGRFTISRDNAKNTVYLQMNSLKPEDTAVYYCAAQSYYGRGYWGQGTQVTVSS”, the “polyreactivity (PSR sort gate)” value is reported as “high polyreactivity”.
For “QVQLVESGGGLVQAGGSLRLSCAASGFTFGYYAMGWYRQAPGKERELVAAISSRGSGTYYADSVKGRFTMSRDNAKNTVYLQLNSLKPEDTAVYYCARPSALLGYWGQGTQVTVSS”, the “polyreactivity (PSR sort gate)” value was “low polyreactivity”.
With “QVQLVESGGGLVQAGGSLRLSCAASGFTFGYYAMGWYRQAPGKERELVAAITYSGGSTYYADSVKGRFTISRDNAKNTVYLQMNSLKPEDTAVYYCNAYARRYYYGRWYGEFDYWGQGTQVTVSS” the “polyreactivity (PSR sort gate)” value was “low polyreactivity”.
With “QVQLVESGGGLVQAGGSLRLSCAASGFTFGYYAMGWYRQAPGKERELVGAINWSGGRTYYADSVKGRFTISRDNAKNTVYLQMNSLKPEDTAVYYCAASAHYDGDYWGQGTQVTVSS” the “polyreactivity (PSR sort gate)” value was “high polyreactivity”.
For “QVQLVESGGGLVQAGGSLRLSCAASGFTFGYYGMGWYRQAPGKERELVAAISWSGGSTYYADSVKGRFTISRDNEKNTVYLQMNSLKPEDTAVYYCNADYAGFYQRRYIEDDYWGQGTQVTVSS”, the “polyreactivity (PSR sort gate)” value was “low polyreactivity”.
In the case of “QVQLVESGGGLVQAGGSLRLSCAASGFTFGYYGMGWYRQAPGKVRELVAAINWSGVNTNYADSVKGRFTISRDNAKNTVYLQMNSLKPEDTAVYYCAADAGYDGYGYWGQGTQVTVSS”, the “polyreactivity (PSR sort gate)” value is reported as “low polyreactivity”.
For “QVQLVESGGGLVQAGGSLRLSCAASGFTFGYYTMGWYRQAPGKERELVAAISSSGGSTYYADSVKGRFTISRDNAKNTVYLQMNSLKPEDTAVYYCAARSVRYGGRYDYWGQGTQVTVSS”, the “polyreactivity (PSR sort gate)” value was “high polyreactivity”.
In the case of “QVQLVESGGGLVQAGGSLRLSCAASGFTFGYYTMGWYRQAPGKERELVASISWDGGSTYYADSVKGRFTISRDNAKNTVYLQMHSLKPEDTAVYYCATDDYDQLAVGAYDYWGQGTQVTVSS”, the “polyreactivity (PSR sort gate)” value is reported as “low polyreactivity”.
For “QVQLVESGGGLVQAGGSLRLSCAASGFTFHGYAMGWYRQAPGKERELVAAISSSGGRTYYADSVKGRFTISRDNAKNTVYLQMNSLKPEDPEVYYCAAKARGIYVPDGGYWGQGTQVTVSS”, the “polyreactivity (PSR sort gate)” value was “high polyreactivity”.
For “QVQLVESGGGLVQAGGSLRLSCAASGFTFHNNVMGWYRQAPGKERELVATISKSGGSTYYADSVKGRFTISRDNAKNTVYLQMNSLKPEDTAVYYCARRYRDYGRYGYWGQGTQVTVSS”, the “polyreactivity (PSR sort gate)” value was “high polyreactivity”.
For “QVQLVESGGGLVQAGGSLRLSCAASGFTFHRNAMGWYRQAPGKERELVAAISTRGGSTAYADSVKGRFTISRDNAKNTVYLQMNSLKPEDTAVYYCAARVRVTGTYYTKYDYWGQGTQVTVSS”, the “polyreactivity (PSR sort gate)” value was “high polyreactivity”.
In the case of “QVQLVESGGGLVQAGGSLRLSCAASGFTFHRNAMGWYRQAPGKERELVAAITLNGGSSTYYADSVKGRFTISRDNAKNTVYLQMNSLKPEDTAVYYCARDSYSYTFSKNSDPAEYDYWGQGTQVTVSS”, the “polyreactivity (PSR sort gate)” value is reported as “low polyreactivity”.
With “QVQLVESGGGLVQAGGSLRLSCAASGFTFHSYAMGWYRQAPGKERELVATISRSGGSTYYADSVKGRFTISRDNAKNTVYLQMNSLKPEDTAVYYCNKLLYGWSKPVGYDYYWGQGTQVTVSS” the “polyreactivity (PSR sort gate)” value was “high polyreactivity”.
For “QVQLVESGGGLVQAGGSLRLSCAASGFTFHTYAMGWYRQAPGKERELVAAIDSSGGITYYADSVKGRFTISRDHAKNTVYLQMNSLKPEDTAVYYCAAVFLLFGFEWSYDYWGQGTQVTVSS”, the “polyreactivity (PSR sort gate)” value was “low polyreactivity”.
